Source: the Human Domainome abundance scans (Beltran et al. 2025)

B1: Gamma-crystallin C, residues 4 to 79; numbered along this chain, P07315 (parent)
chain: ITFYEDRAFQGRSYETTTDCPNLQPYFSRCNSIRVESGCWMLYERPNYQGQQYLLRRGEYPDYQQWMGLSDSIRSC

Variants of: B1
Test: abundance fitness (aPCA) (normalised: wild type 0, dead -1); higher = more abundant; growth selection in yeast, the domain comes from the species named
Details: Homo sapiens

Abundance fitness: each site, then its substitutions
P61: G -0.041; D -0.034; S 0.004; R -0.038; A -0.004; C -0.072; L -0.064; Q -0.051; F -0.039; V -0.083; H -0.205; I -0.129; K 0; T -0.142; Y -0.018; M 0.002; E -0.094
Q52: F 0.093; H 0.082; M -0.108; A -0.014; C -0.138; S -0.041; R -0.072; L -0.017; I -0.105; E 0.014; N -0.053; T -0.114; D 0.102; V -0.076; W -0.141; G -0.071; Y -0.326
R45: A -0.025; N -0.169; I -0.16; L -0.146; G 0.061; K 0.089; S -0.127; Y 0.187; T -0.001; Q -0.13; P -0.955; H -0.057; W -0.04; V -0.15; M -0.001; C -0.142; F 0.032; D -0.11
L55: N -0.85; T -0.318; C -0.178; W -0.631; M -0.237; A -0.368; D -0.807; F -0.246; S -0.701; K -0.853; G -0.571; V -0.048; R -0.794; H -1.03; Y -0.04; I 0.038
L42: R -1.16; D -0.857; S -0.287; W -0.919; G -0.063; V -0.011; A -0.102; N -0.967; Q -0.888; C -0.031; E -1.16; M 0.045; P -0.864; T -0.095; Y -0.728
Y53: F -0.015; G -0.143; Q -0.094; P -0.947; E -0.142; A -0.127; T -0.146; S 0.022; V -0.025; N -0.062; W 0.084; I 0.131; K -0.026; M -0.005; R -0.019; C -0.113
E44: P -0.283; Q 0.049; V -0.147; H -0.137; D 0.022; S -0.077; M 0.355; L -0.006; R 0.002; F -0.414; T -0.206; W -0.372; I -0.02; A -0.034; C 0.068; G 0.02
G58: E -0.272; M -0.223; N 0.034; L -0.659; Q -0.166; Y 0.009; S -0.039; R -0.16; P -0.674; K -0.197; D 0.251; W -0.408; V -1; T -0.102
E59: Q 0.009; R -0.181; I -0.789; A -0.07; K 0; L -0.084; M -0.029; N -0.155; G 0.019; D 0.025; S 0.049; F -0.039; T -0.196; V -0.053; P 0.003; W -0.275
Y63: D -0.067; F 0.032; G -0.041; E -0.146; H -0.234; A -0.115
Y60: L -0.247; F -0.198
N47: P -0.909; D -0.032; G 0.08; Q -0.179; I -0.308; R -0.038; M -0.044; A 0.047; L -0.01; K 0.025; W -0.086; E 0.047; Y 0.002; S -0.115
